# According to patent publication US20220396632A1 (VERSEAU THERAPEUTICS, published 2022):
# Numbering of substitutions follows the chain as printed. Non-standard residues stand in square brackets, D forms with d. No end group written: not given here. *: point of attachment. Biotin = O=C1N[C@H]2[C@H](CS[C@H]2CCCCC(=O)*)N1; sY = N[C@@H](Cc1ccc(OS(=O)(=O)O)cc1)C(=O)O
# T1: Recombinant human PSGL-1(ECD)-hFc1 (R&D Systems, Cat. 3345-PS) (human, UniProt Q14242 42-305)
# T1 construct: Bought; Gln42-Val295 counted on AAC50061; also called PSGL-1-Fc; PSGL-1-hFc1 chimera; not shown: human IgG1 Fc, Pro100-Lys330
# T1 sequence: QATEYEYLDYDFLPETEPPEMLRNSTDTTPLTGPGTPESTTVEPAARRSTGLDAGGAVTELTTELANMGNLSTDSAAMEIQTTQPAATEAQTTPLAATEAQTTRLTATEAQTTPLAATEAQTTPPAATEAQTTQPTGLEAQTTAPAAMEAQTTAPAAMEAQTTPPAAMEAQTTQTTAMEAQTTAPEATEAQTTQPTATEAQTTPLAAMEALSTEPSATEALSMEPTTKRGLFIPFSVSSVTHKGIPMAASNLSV
# T2: Sulfotyr fibrinogen γ peptide (not fully specified; Y8 and Y12 sulfated (SO3); C-terminal biotin)
# T2 construct: also called Fibrinogen gamma peptide; human sulfotyrosinylated fibrinogen peptide
# T2 peptide: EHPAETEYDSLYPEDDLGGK
# T3: SulfoCCK biotin peptide (human)
# T3 construct: also called sulfotyrosine CCK peptide
# T3 peptide: SHRISDRD[sY]MGWMDFGGK(Biotin)
# T4: SulfoTyr C4 peptide (not fully specified; Y4, Y7 and Y9 sulfated (SO3); C-terminal biotin)
# T4 construct: also called C4 alpha chain peptide; human sulfotyrosinylated C4 peptide
# T4 peptide: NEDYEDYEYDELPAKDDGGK
# T5: Sulfotyrosine CCR2b biotin peptide (human)
# T5 construct: also called CCR2b peptide
# T5 peptide: TTFFD[sY]D[sY]GAPSHGGK(Biotin)
# T6: Sulfotyrosine D6 biotin peptide (human)
# T6 construct: also called D6 peptide
# T6 peptide: ENSSFY[sY][sY]D[sY]LDEVAFGGK(Biotin)
# T7: Human fibrinogen protein (ThermoFisher, RP-43142) (human, UniProt P02671 20-629; P02675 31-491; P02679 27-453, limits assumed, natural sulfotyrosines)
# T7 construct: mature; Native dimer with 3 pairs of non-identical chains; also called gamma-fibrinogen; γ fibrinogen protein
# T7 sequence (looked up) 1: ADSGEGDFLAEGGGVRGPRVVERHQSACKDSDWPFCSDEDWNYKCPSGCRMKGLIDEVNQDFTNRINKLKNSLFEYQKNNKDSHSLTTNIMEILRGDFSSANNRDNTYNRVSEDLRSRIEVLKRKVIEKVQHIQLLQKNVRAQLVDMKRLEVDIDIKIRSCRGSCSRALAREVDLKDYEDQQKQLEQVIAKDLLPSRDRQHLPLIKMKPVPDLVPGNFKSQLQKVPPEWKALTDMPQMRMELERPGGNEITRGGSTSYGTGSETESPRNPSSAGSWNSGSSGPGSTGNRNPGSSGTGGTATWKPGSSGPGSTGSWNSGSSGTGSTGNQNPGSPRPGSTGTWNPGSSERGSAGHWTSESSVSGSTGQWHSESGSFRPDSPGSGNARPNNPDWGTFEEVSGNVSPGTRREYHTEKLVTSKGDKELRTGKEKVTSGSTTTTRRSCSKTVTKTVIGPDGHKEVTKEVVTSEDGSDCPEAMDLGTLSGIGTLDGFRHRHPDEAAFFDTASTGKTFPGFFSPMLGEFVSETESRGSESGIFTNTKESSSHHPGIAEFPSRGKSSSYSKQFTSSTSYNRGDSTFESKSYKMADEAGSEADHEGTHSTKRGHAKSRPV
# T7 sequence (looked up) 2: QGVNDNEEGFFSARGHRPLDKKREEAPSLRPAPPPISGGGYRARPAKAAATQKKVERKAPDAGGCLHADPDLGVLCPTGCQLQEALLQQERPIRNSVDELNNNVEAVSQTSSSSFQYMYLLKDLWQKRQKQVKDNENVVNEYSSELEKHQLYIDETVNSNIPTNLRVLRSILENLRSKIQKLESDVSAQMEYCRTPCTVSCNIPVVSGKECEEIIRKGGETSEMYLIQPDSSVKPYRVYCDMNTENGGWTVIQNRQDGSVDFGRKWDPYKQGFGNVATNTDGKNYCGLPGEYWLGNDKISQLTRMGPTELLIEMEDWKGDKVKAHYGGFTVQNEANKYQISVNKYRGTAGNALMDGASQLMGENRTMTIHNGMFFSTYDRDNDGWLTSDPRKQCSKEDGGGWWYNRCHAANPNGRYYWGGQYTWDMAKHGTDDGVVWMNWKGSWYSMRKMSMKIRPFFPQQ
# T7 sequence (looked up) 3: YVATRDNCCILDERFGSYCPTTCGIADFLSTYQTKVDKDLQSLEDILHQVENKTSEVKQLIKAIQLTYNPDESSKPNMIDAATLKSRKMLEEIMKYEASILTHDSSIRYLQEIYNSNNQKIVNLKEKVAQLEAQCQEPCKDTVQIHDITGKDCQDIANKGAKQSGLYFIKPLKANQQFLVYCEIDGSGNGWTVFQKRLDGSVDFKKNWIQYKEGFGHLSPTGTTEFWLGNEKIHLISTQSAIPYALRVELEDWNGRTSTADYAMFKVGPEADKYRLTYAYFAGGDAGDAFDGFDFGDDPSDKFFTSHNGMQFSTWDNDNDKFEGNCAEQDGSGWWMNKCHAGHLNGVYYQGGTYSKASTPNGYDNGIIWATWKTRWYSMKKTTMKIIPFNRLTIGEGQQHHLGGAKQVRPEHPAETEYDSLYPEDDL
# B1: 09D04 (antibody, IgG4, V domains shown)
# VH: QVQLQQSGGGLVQPGGSLTLSCVGSGFDFRSYAMSWVRQAPGKGLEWVSGINNSGSKTYYADFVKGRFSVSRDNSKNIVWLRMRSLRAEDTAVYYCARRTFGPPHAWGQGTMVTVSS
# VL: DVVMTQSPLSLPVTPGEPASISCRSSQSLLHSNGYTYLEWYLHKPGQSPQLLIYLGSNRASGVPDRFSGSGSGTDFTLKISRVEAEDVGVYYCMHSLHIPFTFGPGTKVDIK
# B2: 05H03 (antibody, IgG4, V domains shown)
# VH: B1 VH
# VL: DIVMTQSPLSLSVTPGEPASISCRSSQSLLHSNGYKYLDWYLQKPGQSPQLLIYMGSNRASGVPDRFSGSGSGTDFTLKISRVEAEDVGVYYCMQGLQSPLTFGGGTKVEIE
# B3: 09A08 (antibody, IgG4, V domains shown)
# VH: QVQLVQSGAAVKKPGESLKISCKGSGYTFSNYWIGWVRQMPGKGLEWMGIIYPGDSDTRYSPSFQGQVTISADKSISTAYLQWSSLKASDTAMYYCARHIVGPPKSAFDIWGQGTMVTVSS
# VL: DIVMTQTPLSLPVTLGQPASISCSSSQGLQKRDGNTYLNWFQQRPGQSPRRLIYKVSNRDSGVPDRFSGSGSGTDFTLKISRVEAEDVGVYYCMQGTHWPWTFGQGTRVEIK
# B4: 07E07 (antibody, IgG4, V domains shown)
# VH: QVQLQQSGAEVKKPGASVKVSCKASGYTFTSYYMHWVRQAPGQGLEWMGIINTSSGSTKYAQRFQDRVTVTRDTSTTTVYMELNSLRSEDTAVYYCARGGRAYSGSFDNWGQGTLVTVSS
# VL: B3 VL with I2V, T7S, S24R, G28S, Q30V, K31H, L38F, G96A, W101R, R108K
# B5: 03F03 (antibody, V domains shown)
# VH: QVQLQESGPGLVKPSETLSLTCTVSGGSISSSSYYWGWIRQPPGKGLEWIGSIYYSGSTYYNPSLKSRVTISVDTSKNQFSLKLSSVTAADTAVYYCARSRPRPWAFDIWGQGTMVTVSS
# VL: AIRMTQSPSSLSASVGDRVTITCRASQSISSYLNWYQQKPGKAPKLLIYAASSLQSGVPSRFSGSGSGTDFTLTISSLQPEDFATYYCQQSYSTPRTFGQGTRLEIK
# B6: 05D01 (antibody, V domains shown)
# VH: QVTLRESGGALVQPGGSLRLSCAASGFPLRSNAMTWVRQAPGKGLEWVSDIRGNGASTYYADSVKGRFTISRDDSNNILFLQMNSLRAEDTAVYYCVGHGSSSYWGQGTLVTVSS
# VL: DVVMTQSPLSLPVTLGQPASISCRSSQSLVYRDGNIYLNWFQQRPGQSPRRLIYKVSNRDSGVPDRFSGSGSGTDFTLKISRVEAEDVGVYYCMQLTHWPPGFAQGTKLEIK
# B7: 05A11 (antibody, IgG4, V domains shown)
# VH: EVKLLESGGGVVQPGRSLRLSCAASGFSFSAYGMHWVRQAPGKGLEWVSSISGSGDGTYYADSVKGRFTISRDNSKNTLYLQMNSLRAEDAAVYYCAKSVKGRGYFFDYWGQGTLVTVSS
# VL: DIVLTQSPSSLSASVGDRVTITCRASQSISSYLNWYQQKPGKAPKLLIYAASSLQSGVPSRFSGSGSGTDFTLSISNLQPEDFATYYCQQAYKFPRSFGGGTKVEFK
# B8: 11D10 (antibody, IgG4, V domains shown)
# VH: EVKLLESGGGLVQPGGSLRLSCAVSGFTFSTSAMIWVRQAPGKGLEWVSFISGSTSNTYYADSVKGRFTISRDNSKNTLYLQMNGLTAEDTAVYYCARGTAAATWGQGALVTVSS
# VL: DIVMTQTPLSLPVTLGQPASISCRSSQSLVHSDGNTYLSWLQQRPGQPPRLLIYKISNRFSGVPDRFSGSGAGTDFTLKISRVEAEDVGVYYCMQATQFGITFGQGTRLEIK
# B9: 05E08 (antibody, IgG4, V domains shown)
# VH: EVQLVQSGGGVVQPGRSLRLSCAASGFTFSTYAMHWVRQAPGKGLEWVAVISYDGSNKYYADSVKGRFTISRDNSRNTLFLQMNSLRDEDTAVYYCAKRGTMIRGERSLDFWGQGTLVTVSS
# VL: AIQMTQSPSFLSASVGDRVTITCRASQGINSWLAWYQQKPGTAPNLLIHAASTLQSGVPSRFSGSRSGTEFTLTISSLQPEDFATYYCQQLQSYPLTFGQGTRLEIK
# Biological target: T1, Recombinant human PSGL-1(ECD)-hFc1 (R&D …)
# Assay: ELISA, 50 nM mAb
# Method: (§1) Recombinant PSGL-1-hFc1 chimera protein consisting of PSGL-1's extracellular domain (ECD) served as a positive control. […] Primary antibody was added (25 ul per well) in duplicate at 50 nM in assay buffer (blocking buffer containing 0.05% Tween®20) into test and control (just blocked) wells and the plate incubated for 45 min at 37° C.
row,A450nm,Binder
1,2.66 A450nm,B1
2,2.58 A450nm,B2
3,2.49 A450nm,B3
4,2.44 A450nm,B4
5,2.12 A450nm,B5
6,2.33 A450nm,B6
7,1.99 A450nm,B7
8,2.38 A450nm,B8
9,2.46 A450nm,B9

# Biological target: T2, Sulfotyr fibrinogen γ peptide
# Assay: ELISA, 50 nM mAb
# Method: as §1
row,binding normalized to PSGL-1,Binder
1,0.49,B1
2,0.68,B2
3,0.14,B3
4,1.04,B4
5,1.33,B5
6,0.89,B6
7,0.87,B7
8,0.26,B8
9,1.05,B9

# Biological target: T3, SulfoCCK biotin peptide
# Assay: ELISA, 50 nM mAb
# Method: as §1
row,binding normalized to PSGL-1,Binder
1,0.53,B1
2,0.74,B2
3,0.08,B3
4,0.75,B4
5,0.96,B5
6,0.3,B6
7,0.41,B7
8,0.05,B8
9,0.85,B9

# Biological target: T8, Human complement C4 protein (Millipore Sigma, Cat. 204886) (human, UniProt P0C0L4 20-675; P0C0L4 680-1446; P0C0L4 1454-1744, limits assumed, natural sulfotyrosines)
# T8 construct: mature
# Assay: ELISA, 50 nM mAb
# Method: as §1
# T8 sequence (P0C0L4 20-675 limits assumed, form in doubt, chain 1 of 3): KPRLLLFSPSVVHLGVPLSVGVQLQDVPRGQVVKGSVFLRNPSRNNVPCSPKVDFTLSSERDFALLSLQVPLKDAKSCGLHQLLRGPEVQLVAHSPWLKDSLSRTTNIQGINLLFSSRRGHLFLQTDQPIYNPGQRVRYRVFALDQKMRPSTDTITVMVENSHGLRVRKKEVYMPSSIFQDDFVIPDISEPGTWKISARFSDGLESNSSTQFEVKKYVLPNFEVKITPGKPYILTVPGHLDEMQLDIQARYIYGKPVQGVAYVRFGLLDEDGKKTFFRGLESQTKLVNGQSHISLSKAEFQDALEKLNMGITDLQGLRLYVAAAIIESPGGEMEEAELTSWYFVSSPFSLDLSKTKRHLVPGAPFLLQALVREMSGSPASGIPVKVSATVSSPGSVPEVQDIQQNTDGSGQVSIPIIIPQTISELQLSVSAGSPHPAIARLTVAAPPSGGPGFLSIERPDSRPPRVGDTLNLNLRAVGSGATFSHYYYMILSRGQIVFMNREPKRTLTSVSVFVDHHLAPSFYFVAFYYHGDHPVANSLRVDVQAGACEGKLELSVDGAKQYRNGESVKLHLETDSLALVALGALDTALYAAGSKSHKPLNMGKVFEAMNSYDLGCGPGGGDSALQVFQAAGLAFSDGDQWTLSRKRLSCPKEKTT
# T8 sequence (P0C0L4 680-1446 limits assumed, form in doubt, chain 2 of 3): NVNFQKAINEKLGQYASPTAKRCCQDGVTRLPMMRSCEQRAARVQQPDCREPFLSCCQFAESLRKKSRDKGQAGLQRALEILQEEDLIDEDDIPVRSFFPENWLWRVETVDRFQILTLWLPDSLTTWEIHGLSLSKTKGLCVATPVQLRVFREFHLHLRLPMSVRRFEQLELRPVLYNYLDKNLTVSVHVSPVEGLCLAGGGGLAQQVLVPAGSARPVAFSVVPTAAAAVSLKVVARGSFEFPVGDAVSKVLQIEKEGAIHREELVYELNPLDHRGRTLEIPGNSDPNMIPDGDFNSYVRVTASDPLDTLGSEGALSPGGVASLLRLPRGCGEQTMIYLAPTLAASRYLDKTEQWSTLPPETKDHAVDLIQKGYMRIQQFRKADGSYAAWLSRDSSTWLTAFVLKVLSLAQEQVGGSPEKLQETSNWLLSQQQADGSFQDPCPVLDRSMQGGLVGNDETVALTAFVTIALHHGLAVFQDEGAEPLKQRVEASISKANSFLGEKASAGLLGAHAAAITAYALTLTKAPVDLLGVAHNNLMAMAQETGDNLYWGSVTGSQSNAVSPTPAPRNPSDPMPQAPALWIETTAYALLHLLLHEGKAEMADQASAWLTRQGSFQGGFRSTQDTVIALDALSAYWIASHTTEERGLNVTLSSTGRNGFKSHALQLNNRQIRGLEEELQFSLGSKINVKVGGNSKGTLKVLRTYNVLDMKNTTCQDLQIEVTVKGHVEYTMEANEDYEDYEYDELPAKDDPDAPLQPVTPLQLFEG
# T8 sequence (P0C0L4 1454-1744 limits assumed, form in doubt, chain 3 of 3): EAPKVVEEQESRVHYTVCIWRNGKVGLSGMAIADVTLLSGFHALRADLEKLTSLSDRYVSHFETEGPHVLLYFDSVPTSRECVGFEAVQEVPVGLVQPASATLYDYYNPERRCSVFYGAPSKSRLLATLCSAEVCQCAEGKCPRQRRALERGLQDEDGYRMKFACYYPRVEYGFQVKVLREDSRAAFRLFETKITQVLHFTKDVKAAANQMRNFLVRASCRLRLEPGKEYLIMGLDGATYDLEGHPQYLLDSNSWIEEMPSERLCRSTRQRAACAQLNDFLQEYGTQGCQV
row,binding normalized to PSGL-1,Binder
1,0.61,B1
2,0.58,B2
3,0.22,B3
4,1.04,B4
5,1.35,B5
6,0.08,B6
7,0.44,B7
8,0.09,B8
9,1.04,B9

# Biological target: T4, SulfoTyr C4 peptide
# Assay: ELISA, 50 nM mAb
# Method: as §1
row,binding normalized to PSGL-1,Binder
1,0.4,B1
2,0.49,B2
3,0.54,B3
4,0.97,B4
5,1.19,B5
6,0.11,B6
7,0.44,B7
8,0.07,B8
9,1,B9

# Biological target: T5, Sulfotyrosine CCR2b biotin peptide
# Assay: ELISA, 50 nM mAb
# Method: as §1
row,binding normalized to PSGL-1,Binder
1,0.37,B1
2,0.45,B2
3,0.08,B3
4,0.75,B4
5,1.21,B5
6,0.17,B6
7,0.09,B7
8,0.04,B8
9,0.85,B9

# Biological target: T6, Sulfotyrosine D6 biotin peptide
# Assay: ELISA, 50 nM mAb
# Method: as §1
row,binding normalized to PSGL-1,Binder
1,0.75,B1
2,0.8,B2
3,0.6,B3
4,0.84,B6
5,0.45,B7
6,0.08,B8

# Biological target: T7, Human fibrinogen protein (ThermoFisher, …)
# Assay: ELISA, 50 nM mAb
# Method: as §1
row,binding normalized to PSGL-1,Binder
1,0.25,B1
2,0.29,B2
3,0.05,B3
4,0.29,B4
5,0.23,B5
6,0.07,B6
7,0.21,B7
8,0.03,B8
9,0.44,B9
